From PMC10920075 (Nature structural & molecular biology, 2023) come the findings set out here.

The data set concerns the molecule itself. Kind of data set: cryo-EM structure.

B1: DNA polymerase γ accessory subunit PolγB (natural protein, human, UniProt Q9UHN1 26-485, looked up)
chain: DAGQPELLTERSSPKGGHVKSHAELEGNGEHPEAPGSGEGSEALLEICQRRHFLSGSKQQLSRDSLLSGCHPGFGPLGVELRKNLAAEWWTSVVVFREQVFPVDALHHKPGPLLPGDSAFRLVSAETLREILQDKELSKEQLVAFLENVLKTSGKLRENLLHGALEHYVNCLDLVNKRLPYGLAQIGVCFHPVFDTKQIRNGVKSIGEKTEASLVWFTPPRTSNQWLDFWLRHRLQWWRKFAMSPSNFSSSDCQDEEGRKGNKLYYNFPWGKELIETLWNLGDHELLHMYPGNVSKLHGRDGRKNVVPCVLSVNGDLDRGMLAYLYDSFQLTENSFTRKKNLHRKVLKLHPCLAPIKVALDVGRGPTLELRQVCQGLFNELLENGISVWPGYLETMQSSLEQLYSKYDEMSILFTVLVTETTLENGLIHLRSRDTTMKEMMHISKLKDFLIKYISSAKNV
As a reminder, the stoichiometry N is the number of molecules, sites or subunits per partner or assembly. B1: the “stoichiometry N” value stood at 2.
